T1: FLI-1 (UniProt Q01543 1-452)
T1 sequence: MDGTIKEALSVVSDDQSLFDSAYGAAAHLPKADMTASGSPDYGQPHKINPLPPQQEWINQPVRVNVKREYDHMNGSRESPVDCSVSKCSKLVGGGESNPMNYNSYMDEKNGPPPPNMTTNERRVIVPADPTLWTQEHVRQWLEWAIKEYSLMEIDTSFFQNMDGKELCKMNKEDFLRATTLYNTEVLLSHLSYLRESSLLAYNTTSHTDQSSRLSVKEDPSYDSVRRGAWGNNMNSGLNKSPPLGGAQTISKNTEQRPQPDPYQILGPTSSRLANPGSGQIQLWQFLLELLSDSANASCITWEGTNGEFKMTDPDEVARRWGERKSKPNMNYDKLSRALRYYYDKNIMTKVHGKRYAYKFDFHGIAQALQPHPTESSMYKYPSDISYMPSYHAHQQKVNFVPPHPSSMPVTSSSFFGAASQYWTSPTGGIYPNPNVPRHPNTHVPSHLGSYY


How the values were obtained:
FLI-1 [1] = target: T1, FLI-1; experiment: EMSA; supershift with anti-FLI-1; 2 mM HEPES-NaOH pH 7.9, 5 mM KCl, 2% glycerol, 0.01 mM EDTA, 0.25 mM DTT, 0.1 mg/ml BSA, 5 ng/ul poly dI-dC, 50 fmol probe, 40 min at 4 C; 4% native gel, 0.5x TBE; settings: protein: ivt; label: 32P; blunt
ELF-1 [2] = target: T2, ELF-1 (UniProt P32519 1-619); experiment: EMSA; anti-ELF-1 inhibits, weak supershift; 2 mM HEPES-NaOH pH 7.9, 5 mM KCl, 2% glycerol, 0.01 mM EDTA, 0.25 mM DTT, 0.1 mg/ml BSA, 5 ng/ul poly dI-dC, 50 fmol probe, 40 min at 4 C; 4% native gel, 0.5x TBE; settings: protein: ivt; label: 32P; blunt
ELF-1 [3] = target: T2, ELF-1; experiment: EMSA; 2 mM HEPES-NaOH pH 7.9, 5 mM KCl, 2% glycerol, 0.01 mM EDTA, 0.25 mM DTT, 0.1 mg/ml BSA, 5 ng/ul poly dI-dC, 50 fmol probe, 40 min at 4 C; 4% native gel, 0.5x TBE; settings: protein: ivt; label: 32P as probe; blunt
FLI-1 [4] = target: T1, FLI-1; experiment: as above; settings: protein: ivt; label: 32P as probe; blunt

T2 sequence (P32519 whole entry): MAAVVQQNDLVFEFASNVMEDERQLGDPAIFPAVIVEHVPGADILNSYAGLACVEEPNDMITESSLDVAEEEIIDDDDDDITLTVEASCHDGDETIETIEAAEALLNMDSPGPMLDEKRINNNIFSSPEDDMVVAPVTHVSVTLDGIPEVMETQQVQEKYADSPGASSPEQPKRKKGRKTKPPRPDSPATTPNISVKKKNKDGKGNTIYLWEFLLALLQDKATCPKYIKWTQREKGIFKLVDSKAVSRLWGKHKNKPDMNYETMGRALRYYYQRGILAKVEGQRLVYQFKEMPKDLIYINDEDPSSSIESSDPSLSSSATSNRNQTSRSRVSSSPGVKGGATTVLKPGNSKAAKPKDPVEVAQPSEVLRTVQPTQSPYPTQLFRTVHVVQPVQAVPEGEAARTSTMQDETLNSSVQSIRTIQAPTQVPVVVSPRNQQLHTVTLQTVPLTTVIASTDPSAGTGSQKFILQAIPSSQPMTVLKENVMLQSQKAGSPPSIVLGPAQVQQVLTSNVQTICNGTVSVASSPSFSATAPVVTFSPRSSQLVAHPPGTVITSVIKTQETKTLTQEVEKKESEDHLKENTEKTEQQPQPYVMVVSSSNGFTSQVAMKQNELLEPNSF

Binder | binding result (FLI-1 [1]) | binding result (ELF-1 [2]) | binding result (ELF-1 [3]) | binding result (FLI-1 [4])
-51 ETS (dsDNA) DNA 1: CCCGGGTTTCCGGACTGGGCTG DNA 2: CAGCCCAGTCCGGAAACCCGGG | binds | binds |  | 
-51 ETSmut (dsDNA) DNA 1: CCCGGGTCGGTGGACTGGGCTG DNA 2: CAGCCCAGTCCACCGACCCGGG |  |  | no binding | no binding

— PMC3171469, “Multiple ETS Family Proteins Regulate PF4 Gene Expression by Binding to the Same ETS Binding Site”
